Biological target: FLAG-tagged vasodilator-stimulated phosphoprotein (FLAG-VASP), wildtype (human) (UniProt P50552)
Assay: proximity ligation; 293T cells co-expressing p8-HA and FLAG-VASP or FLAG-N-WASP, fixed with 2% PFA; mouse anti-FLAG and rabbit anti-HA, Duolink In Situ Red kit; dots per positive cell counted

UniProt P50552, sequence (P50552 whole entry): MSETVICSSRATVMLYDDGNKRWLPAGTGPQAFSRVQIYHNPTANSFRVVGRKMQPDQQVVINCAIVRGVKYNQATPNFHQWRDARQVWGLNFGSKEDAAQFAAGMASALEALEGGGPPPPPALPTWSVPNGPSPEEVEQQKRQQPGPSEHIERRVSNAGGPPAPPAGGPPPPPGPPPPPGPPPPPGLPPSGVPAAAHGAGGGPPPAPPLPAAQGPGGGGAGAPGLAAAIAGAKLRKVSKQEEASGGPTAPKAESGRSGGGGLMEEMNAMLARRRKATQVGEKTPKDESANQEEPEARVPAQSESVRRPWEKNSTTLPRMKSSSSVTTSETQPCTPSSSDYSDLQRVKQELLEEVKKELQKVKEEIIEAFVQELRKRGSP

Question: With “HTLV-1 p8 protein, HA-tagged (p8-HA) (natural protein)” as the substance, how does the PLA spots per cell (spots per cell) read?
Answer: 7

From PMC7526893
